According to PMC9258321, “Structure-guided design of CPPC-paired disulfide-rich peptide libraries for ligand and drug discovery†” (Chemical Science, 2022):
Ends that are not written are not given here.

Target: T1, Kelch domain of Keap1
T1 construct: Keap1, Kelch domain; The Kelch domain is named for the phage selection; the SPR sentences say only 'Keap1'
Test: SPR; Keap1 with oxidized peptides, concentration-dependent
Details: both partners purified

Kd: 153 nM
B1: drp5-a (peptide)
chain: CPPCHGRPTCDEETGECWELLTCPPC
modifications: disulfide (positions not given here); also: oxidized (disulfides), pairing of this isomer not given here
